{"source": "paper PMC7145526", "about": "“The mRNA repressor TRIM71 cooperates with Nonsense-Mediated Decay factors to destabilize the mRNA of CDKN1A/p21”", "target": "T1, Flag-TRIM71-NHL (Homo sapiens, UniProt Q2Q1W2 585-868)", "T1 sequence": "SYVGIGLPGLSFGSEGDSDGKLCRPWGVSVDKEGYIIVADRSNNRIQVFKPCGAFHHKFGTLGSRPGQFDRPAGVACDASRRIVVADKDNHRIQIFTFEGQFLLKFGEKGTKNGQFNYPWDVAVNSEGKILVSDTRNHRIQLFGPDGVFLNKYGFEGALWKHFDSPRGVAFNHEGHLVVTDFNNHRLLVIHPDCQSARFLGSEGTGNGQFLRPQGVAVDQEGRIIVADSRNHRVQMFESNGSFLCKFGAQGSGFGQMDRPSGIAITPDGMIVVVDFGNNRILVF", "test": "fluorescence polarization; 1x TBST, 30 min, RT; 100 nM 5'-Cy3 RNA, increasing protein concentrations; pH and salt not given", "settings": "protein: recombinant; tags: Flag; label: 5'-Cy3; hairpin (disruptive mutation)", "data": [{"binder": "GUCUUGUCAAGGC (structured_RNA)", "note": "[TRE M#3 (SL M#3), loop position III G to C]", "values": [{"measurement": "binding result", "result": "no binding"}]}]}
